According to a protein production outcome set (Wang et al. 2014):

Experiment: label from the status in PepcDB records

Sequence | protein production
MANATFSADKLKQLTLQITKLARVAGDFQINELKNFERSNIEHKGRSNDLVSYVDKETEKLLIESLTKLVPEAGFETEEGTVEQTQSGLRWIIDPLDGTTNFLHKLPLFSISIALVQDETLLIGVVHEPSRNECFYAWKNGGAYMNGERIETSSITEISDALIATGFPYSLRGKSDQYFTLIRHFVETTHGVRRLGSAAIDLCYVACGRFEAYFEFNLKPWDVAAGILIVREAGGIVSNYSGGDDHCQTAEEVCAAGRHIHPLMIDTFKKIW | failed
MIIWQPDQKINNGRFIIQGKPLGEGGFGITYKALEPSTGKLYAIKTLNQQMQLLRSDFAEQQIKFINEALTIKGFDHPHILKVHEVIQEGELFGVVMEYIDGVTLFEYVQDKGQLSETEALLYVNQIGQALELIHQKQHLHRDIKPENILLRHTTRKAILIDFGLAREFTIDQTGSMTNAKTEGYAPPEQYERRGRFDAYVDVYALAATLYNLLTGKVPLPVNFRKAGIPLPPPKQFNSQISQRVNDAILKGMELEPQERTPTVLEFRKNLGLVSSGGAEVQLKSSVGMDYRQLRDLLAVGKWKEADAETARVMLAAMKREKEGWLREEDTWFFPCEDLRTIDQLWVKYSNGRFGFSVQKRIYQSLGGKRSYDEEIWRAFGDKVGWRKGGEWLYYKDITFDITAPEAHLPCYTLTIPYTSRGEVGYTDYSPGFGLWWWWGGGLFSRVETCKM | failed
MVEVESDSVAERDRSSFLAGHDAIRLAKSCVDSPPERWYAALYQVYADLTKLRCWSNVEVVYSDSATFPTGLLGPLFEEDSMVQELHSAQCILGSERACFHVRCCIVGSPPSGRAINALSPQSETRTEERIITSRREPEVVIAVPMHAMLKLSNLDQALRMSSHIEGIVKNRHVADSSASTHSTDRQAGSRKSSVIFGFVDEDTTTAYYRIREGACESNDRREFSTDDIASCLAQERT | not failed
MKILKNSYESYIIAEFFKYFLITFLFFFFVFFINQILFFMRILLQNYVPFFKAFIFIIYSLPMVIALSPPFASLISVILTIHKFKLHNEILAFRSIGISIFDLLVPFFKLGIVIAFVSFISNDILLPLGSIGRLKIFNEIKEEVPHLVLKPYSSKQYGDLIFVSGEKSENGYKNVTFFDNTGLKGFDRIFMAKNLDIRKENFQVYFILNDVLSIALTDSESGFYDYFYADKMKYSIDQVTFSDSFLLNYVTPSQMSMRDVIKLIKKQNNLIADSNIKNNLEGDFLSLNFSNLYLNYLYNQNYYVDESYVFENLNYMYNLNLNFKPYQDRSMKQNLALFNLEFYQKISLPLSVLFFIFLAFSMGMYSNRKYSIILELVISIIVCVFYWVMFIGGKVYTVQYAPSPIIVTILPNLILIIAGAILFLRLLKK | failed
MFTFLMTVRTSRRVAFHSGKLPVVIGIVSFFAPLFSLSFLNLFTDNIDPHYMSLDKALAERTVIVITQSQILLPSTTYILLELKIINSELGRLALSASAINDMLGIFAMIVATTQATYIHVSHAIAYRDLVAVIIFFLIVFFVFKPMVQWIIDRTPEDKPVEDIYIHAVILTAFASAAYFVFFNMKYVLGPLIIGIIIPEGPPLGSALEAKFERLTMNVFLPISITFSAMRCDGLRILSQFTDIYFNIFLTLLILVIKLVACLTLCLYYKLPRSESLAVSLILSYKSFVEFVLYEAVLEEKFISQATYAFLILYSLLSAGIVPMVVRSMYDPKRKYVNYQKRDILHLEANSGLRILTCLHKPENVSETIAFLQLFSSPIHDFPIAVTVLHLVKLVGQINPIIVSHDKKLKRLHKNSYIHTANLAFRQFMQESLESVTVTTFTAFSHENLMHEDICTLALDRTTSMIVVPSGRKWTVDGMFESDDLAARQLNQSLLDRAPCSIGILVDRGQFSRKSYVTSKNRYNIDVGVLFIGGKDDREALSLVKRMKYNPRVRVTVIRLIFDHEIESEWDYILDNEGLKDLKSTESNEDILYTERIVTSVVEVVKAVQLLAEEYDLMVVGRDHDMTSQDLSGLTEWVELPELGVIGDLLAARDLNSKVSVLVVQQQQQQT | failed
LFGVTSELSKDGRERIYRVEGQLFYASVEDFMAAFDFREALDRVVIDVSRAHIWDISSVQALDMAVLKFRREGAEVRIVGMNEASETMVDRLAIHD | not failed
MLVDSQYKECVKEIINWGLFLYSEESRRNLIHDSLVELRCHFTWELVIKDNYMPDLEAKILETEFLDTNYNMGMHNLMAYVRHLKGEQEEALQSLKEAEALIEGEQLGKRSLVTWGNCAWVHYHRGSLAEAQIYLDKVENVCREFASPFRYRMECAEIDCEEGWALLKCGGSNCTRAMACFAKALQEEPENPEYNAGYAITAFRMDFSNEISLEPLRKAVRLNPEDPHLKVLLALKLQDLGKQDEAEKHIEEALPKIPSRNNIFGYVAKFYRRKGCVEEALEFLERALKTKPSSVYLHFQIGLCHKSRVFQIKEATNMHPKGKDRERADQSIRSAIYYFEKTLDLKPTYERAYIDLAEMYAESKQFEEAEEAFQKVLSMLSNLEVHMQQEIHFRYGKFQQFHMKSENIAITHYLKGLKIEVTSIFRDKLLKALQKLAERRMQQNVHVLESLSLLGFVYRLKGDTRKAMSCYEKALRLTEELNPEF | failed
MEWSLPVDLQEEILSRVPAKSLARWKSTPKQWKGPISIEFLHLLRSTLKFPLLNLHLKSKSIYVTSFTAMVFCYAPPSTKDSRFGIHVQGKPSGFLADEQNKVVVCCKWRSDSINTIYFVGENKHVQVDQRRGDLTLGQSCSFLMNYVPSFVQIQQGTLLAPRT | failed
MRKLTALFVASTLALGAANLAHAADTTTAAPADAKPMMHHKGKFGPHQDMMFKDLNLTDAQKQQIREIMKGQRDQMKRPPLEERRAMHDIIASDTFDKVKAEAQIAKMEEQRKANMLAHMETQNKIYNILTPEQKKQFNANFEKRLTERPAAKGKMPATAELEHHHHHH | not failed
MSCWKTINLVKDYGGMRIVLTAVSLMILFFIPEYLAMQLIHPQTVQRGDHALLFAGLLVAAIIAHKILHILPMISKKKLEKKIYWLKMRTWREIPKNMMLVSLLCPFLVITPVLFYAGAAMPSFAHYFCIISSIHFGYCLPDFLFAWKLIKAPKNCFVDQEADDFDILIQK | failed
MTELVTFGETMLRLSPPGDERLETADQYAVRAAGAESNVAVAAQRLGVDAMWASKLPDSPVGRRVTGELKHHGVSVDVAWDDSDSARQGTYYLEQGSPPRGNDVIYDRQNASVTTATPAELPTEAIADAAGFHTSGITPALSETLESTTADLLSLAQDAGTTTSFDLNYRSKLWTPAEARSVLTELFPSVDLLVVAERDANVVLDRTGDAETIARDLAAEYGFEATVITRGSDGALALADGTVTEQPTFESTDAHPVGTGDSFVGGFLSQYLSGGTVADGLAWGAATAALKRTIPGDIAVVSPDEIRSILSGDTEAISR | failed
MSLLHIAVLLPLIFALIIPFLYRFVKRIHLGWFVLPVPIVLFIYFISLISMTMSGNNVMKNLNWMPHIGMNFNLYVDGLGLLFSLLITGIGSLVVLYSIGYLSKSEQLGNFYCYLLLFMGAMLGVVLSDNFIILYLFWELTSFSSFLLISFWREKKASIYGAQKSLIITVLGGLSMLGGIILLSLATDTFSIQAMISKASDIQNSPFFILVMILFMIGAFTKSAQVPFYIWLPDAMEAPTPVSAYLHSATMVKAGLYLIARITPIFAISEGWVWTITLVGLITLFWASLNATKQHDLKGILAFSTVSQLGMIMSMLGIGAVSYHYQGANSQLYVAGFVAAIFHLINHATFKGALFMITGGIDHSTGTRDVKKLGGLLTIMPISFTLTVITTLSMAGVPPFNGFLSKEKFLESMINVTHLNLMSLNTLGILLPIIAIIGSIFTFVYSIKFILHIFFGSYKPEALPKQAHESSILMLISPIILTSLVIVFGLFPSILTQSIIEPASVAVSQTSNITAEFHLFHGITPAFLSTIGIYIIGILLLISFSYWVRLLQAHPYQLTLNHWYDTSGQRIPGYSENITNSYVTGFSRNNLVIILGILIALTFVTVISVPFSIDFKNVSHLRVFEGATVLFLLIASTFIIFAKSRLFSIIMLSAVGYAISVLFIFFKAPDLALTQFVVESISTALFLLCFYHLPNLNRYNEKPTFKLTNAVISIGVGLSVIILGLIGYGNRHFDSITKFYQEHVFDLAHGKNMVNVILVDFRGMDTLFESSVLGIAGLGVYTMIKLRLKQKNQSSEVNDHE | failed
MIPDLVPVSLTPVTVVPNTVNTMTATIENQGNKDSTSFNVSLLVDGIVVDTQTVTSLESENSTNVDFHWTLDGTANSYTLTVNVDPENAVNEGNESNNTLTALVGTLEHHHHHH | not failed
MRSSQAIDFERIPEMEDKWRKEITAMTVTLQDKRKAIQNDEILRGVHPKSHGCLDAEFTVNRDIAPQFQVGLFAQPGKCFRARIRYSNADVLKRADLEKGQDATGARFLNHGSRGMAIKVLDVGAPVLLEDGCARNQDFLMVNTPEFAFRNVRDYLRLTKALCASADGADPLLFFLPGELLKRGMMDMSGSLLPAPAGEPPQNAGLRALFEANRAFFDDFDAEDMQGVISAAGVVGKIQSTPVRNPLFAPYFSAASFRFGKDRVMRFSVVPLQSEEMAADMASDAFEDFSDDYLSQALALSVATNEPIKLSFRIQIAHEEDIVNDIDGMIENAAKTWDEDQFSHTEVAQITINPPCPSAELVDTCKPLLFTPWHAVVDFEPLGGINRLRKPVYSTSAAFRRSVLEHHHHHH | failed
MSCVHYKFSSKLNYDTVTFDGLHISLCDLKKQIMGREKLKAADCDLQITNAQTKEEYTDDNALIPKNSSVIVRRIPIGGVKSTSKTYVISRTEPAMATTKAIDDSSASISLAQLTKTANLAEANASEEDKIKAMMSQSGHEYDPINYMKKPLGPPPPSYTCFRCGKPGHYIKNCPTNGDKNFESGPRIKKSTGIPRSFMMEVKDPNMKGAMLTNTGKYAIPTIDAGRLLFHKLGTMGHKQIDTYFWNRGDVYGATATQITHLREAYAIGKKEKPPFLPEEPSSSSEEDDPIPDELLCLICKDIMTDAVVIPCCGNSYCDECIRTALLESDEHTCPTCHQNDVSPDALIANKFLRQAVNNFKNETGYTKRLRKQLPPPPPPIPPPRPLIQRNLQPLMRSPISRQQDPLMIPVTSSSTHPAPSISSLTSNQSSLAPPVSGNPSSAPAPVPDITATVSISVHSEKSDGPFRDSDNKILPAAALASEHSKGTSSIAITALMEEKGYQVPVLGTPSLLGQSLLHGQLIPTTGPVRINTARPGGGRPGWEHSNKLGYLVSPPQQIRRGERSCYRSINRGRHHSERSQRTQGPSLPATPVFVPVPPPPLYPPPPHTLPLPPGVPPPQFSPQFPPGQPPPAGYSVPPPGFPPAPANLSTPWVSSGVQTAHSNTIPTTQAPPLSREEFYREQRRLKEEEKKKSKLDEFTNDFAKELMEYKKIQKERRRSFSRSKSPYSGSSYSRSSYTYSKSRSGSTRSRSYSRSFSRSHSRSYSRSPPYPRRGRGKSRNYRSRSRSHGYHRSRSRSPPYRRYHSRSRSPQAFRGQSPNKRNVPQGETEREYFNRYREVPPPYDMKAYYGRSVDFRDPFEKERYREWERKYREWYEKYYKGYAAGAQPRPSANRENFSPERFLPLNIRNSPFTRGRREDYVGGQSHRSRNIGSNYPEKLSARDGHNQKDNTKSKEKESENAPGDGKGNKHKKHRKRRKGEESEGFLNPELLETSRKSREPTGVEENKTDSLFVLPSRDDATPVRDEPMDAESITFKSVSEKDKRERDKPKAKGDKTKRKNDGSAVSKKENIVKPAKGPQEKVDGERERSPRSEPPIKKAKEETPKTDNTKSSSSSQKDEKITGTPRKAHSKSAKEHQETKPVKEEKVKKDYSKDVKSEKLTTKEEKAKKPNEKNKPLDNKGEKKKKK | not failed
MNRFIGYIQVACCCLLLCASCVRDGMDEDCNSYVRFVYDYNLEYIDLFHKQATKMNLYVFDEKGVFVTELKEESGAFAPDYLMTLPGAMAGRRYIFVAWSGLYGESYDKVTLTPGVSTLEDLEVSVNNLKTRIGGGVVDRELHLLWHGKQTEVSPQYNNDITTVSLLKNTKKFRIIMQMLDDSSIHVDDYDFRIISPNGRYNHENGLLGDETDEKVEYTAYHTEDDPETGAIAELNTLRLMTDTENRLVITHKSSGNVILDIPLNKYLNALRLQQYADIPLQEYLDRADKHGIILFFKGMDGNGNYISVDVQINGWLIRKQEVDGV | failed
